{"source": "patent US20180044385A1", "binders": {"B1": {"name": "Protein-G-A1 (designed binder)", "chain": "MKGETTTEAVDAATAEKVFKQYANDNGVDGEWTYDDATKTFTVTEKPEVIDASELTPAVTTYKLVINGRTLSGYTTTTAVDAATAEKVFKQYAYVHEVDGEWTYDDATKTFTVTEKPEVIDASELTPAVTTYKLVINGRTLSGETTTKAVDAETAEKAFKQYANDNGVDGVWTYDDATKTFTVTE"}, "B2": {"name": "Protein-G-HS C7 (designed binder)", "chain": "MKGETTTEAVDAATAEKVFKQYANDNGVDGEWTYDDATKTFTVTEKPEVIDASELTPAVTTYKLVINGKTLKGETTTEAVDAATAEKVFKQYANDNGVDGEWTYDDATKTFTVTEKPEVIDASELTPAVTTYKLVINGRTLSGETTTKAVDAETAEKAFKQYAYGAVVDGVWTYDDATKTFTVTE"}, "B3": {"name": "Protein-G-HS C6 (designed binder)", "chain": "B2 chain with A163S, Y164R, G165P, A166H"}}, "key": {"[1]": {"molecular_target": "4D5 Fab scaffold possessing a human IgG1 CH1 and a Kappa light chain", "experiment": "fluorescence polarization with Alexa-Fluor labeled Protein-G, pH varied"}, "[2]": {"molecular_target": "4D5 Fab scaffold possessing a human IgG1 CH1 and a Kappa light chain", "experiment": "SPR"}, "[3]": {"molecular_target": "4D5 Fab scaffold possessing a human IgG1 CH1 and a Kappa light chain", "experiment": "equilibrium SPR"}, "[4]": {"molecular_target": "Fab with lambda light chain (Cλ)", "experiment": "ELISA; reference is the Fab with kappa light chain"}, "[5]": {"molecular_target": "IgG2, IgG3 and IgG4", "experiment": "method not stated (data not shown)"}, "[6]": {"molecular_target": "FabHS (a human 4D5 scaffold with residues PEELRTNK replacing light chain positions 122-129)", "experiment": "protein ELISA"}}, "note": "Numbering of substitutions follows the chain as printed.", "data": [{"binder": "B1", "values": [{"measurement": "fold decrease in affinity from pH 7.5 to pH 4", "setting": "[1]", "value": 1000, "unit": "fold"}, {"measurement": "fold loss of affinity between pH 5.5 and pH 4.0", "setting": "[1]", "value": 300, "unit": "fold"}, {"measurement": "fold higher affinity than wild-type Protein-G", "setting": "[2]", "value": 100, "unit": "fold"}, {"measurement": "Kd", "setting": "[3]", "value": 25, "unit": "nM"}, {"measurement": "EC50 ratio, Cλ Fab over CK Fab", "setting": "[4]", "value": "> 5000", "unit": "fold"}, {"measurement": "fold decrease in affinity relative to human IgG1", "setting": "[5]", "value": "20 to 50", "unit": "fold"}]}, {"binder": "B2", "values": [{"measurement": "IC50", "setting": "[6]", "value": 100, "unit": "nM"}]}, {"binder": "B3", "values": [{"measurement": "IC50", "setting": "[6]", "value": 8, "unit": "nM"}]}]}
